Assay results published in the supplement of paper PMC7125110.
± gives the standard error. Variants at the floor of the assay were thinned out.

B1: glmS ribozyme (parent)
chain: AUAAAAGCGCCAGAACUACAGAAAUGUAGUUGACGAGGAGGAGGUUUAUCGAAUUUUCGGCGGAUGCCUCCAAA

What was measured:
Conditions in all cases: with glucosamine-6-phosphate
glucosamine-6-phosphate [1] = variants of: B1; experiment: self-cleavage kobs at 640 uM GlcN6P; higher = faster cleavage; RNA array
Method in brief: (§1)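 kobs was derived by fitting per-tile medians to one- or two-exponential decays after normalising signals to baseline and to non-cleaving reference variants. Those signals came from barcoded ribozyme variants transcribed in situ by E. coli RNA polymerase on sequenced MiSeq chips, followed through a hybridised Cy3 probe at 37 °C and imaged over ~14 h. Glucosamine-6-phosphate (40 μM to 10 mM) in HEPES/KCl/Mg(OAc)2 buffer was flowed in. Weighted Michaelis–Menten fits across concentrations then gave kcat and KM.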

glucosamine-6-phosphate [2] = variants of: B1; experiment: self-cleavage kobs at 2500 uM GlcN6P; higher = faster cleavage; RNA array
Method in brief: as §1

glucosamine-6-phosphate [3] = variants of: B1; experiment: self-cleavage kobs at 10000 uM GlcN6P; higher = faster cleavage; RNA array
Method in brief: as §1

| Variant | self-cleavage kobs at 640 uM GlcN6P (glucosamine-6-phosphate [1]) | self-cleavage kobs at 2500 uM GlcN6P (glucosamine-6-phosphate [2]) | self-cleavage kobs at 10000 uM GlcN6P (glucosamine-6-phosphate [3]) |
| --- | --- | --- | --- |
| U30C U49G U55C | < 1e-05 s⁻¹ |  |  |
| A14C U49G C70G | 0.000526 ± 0.00023 s⁻¹ |  |  |
| G13U A14G A42C | < 1e-05 s⁻¹ | < 1e-05 s⁻¹ |  |
| A14U A36U G38C G62A | < 1e-05 s⁻¹ |  |  |
| U30A G32A G37U U49C A64U | < 1e-05 s⁻¹ |  |  |
| A15G G38A G66U | < 1e-05 s⁻¹ |  |  |
| G29U A53G U57C C67G U69A | 0.000459 ± 0.00022 s⁻¹ |  |  |
| G29C U30C G66U | < 1e-05 s⁻¹ |  |  |
| A15C U46A G60U | < 1e-05 s⁻¹ |  |  |
| C19U U46A | 0.0011 ± 0.00031 s⁻¹ | 0.0021 ± 0.00075 s⁻¹ |  |
| A14G C16G A39U A52C | < 1e-05 s⁻¹ |  |  |
| A15G G29C G38A U47C C71A | < 1e-05 s⁻¹ | < 1e-05 s⁻¹ |  |
| G29C A36C A39C | < 1e-05 s⁻¹ |  | < 1e-05 s⁻¹ |
| A14U C34U G35A C71U | < 1e-05 s⁻¹ |  |  |
| C16A A53G G62A | < 1e-05 s⁻¹ |  |  |
| C16A G40U U57G | < 1e-05 s⁻¹ | < 1e-05 s⁻¹ |  |
| A15C A64C C71U | < 1e-05 s⁻¹ |  |  |
| U30A G32A G35C U45C | < 1e-05 s⁻¹ | < 1e-05 s⁻¹ |  |
| G29U A33C C34A G37A C50U U69G | 0.000251 ± 5.9e-05 s⁻¹ |  | 0.000226 ± 4.5e-05 s⁻¹ |

| Variant | self-cleavage kobs at 640 uM GlcN6P (glucosamine-6-phosphate [1]) | self-cleavage kobs at 2500 uM GlcN6P (glucosamine-6-phosphate [2]) | self-cleavage kobs at 10000 uM GlcN6P (glucosamine-6-phosphate [3]) |
| --- | --- | --- | --- |
| C16U A53U G66C | 9.89e-05 ± 2.1e-05 s⁻¹ | 0.000105 ± 2.8e-05 s⁻¹ | 0.000199 ± 5.3e-05 s⁻¹ |
| G29C G32C A52C C68G | 8.66e-05 ± 3.9e-05 s⁻¹ |  |  |
| A15U C34U G41U C71U | < 1e-05 s⁻¹ |  |  |
| A15G G35C A53U | < 1e-05 s⁻¹ | < 1e-05 s⁻¹ | < 1e-05 s⁻¹ |
| A15U U31G A48U | < 1e-05 s⁻¹ |  |  |
| A14C A64U C67U | < 1e-05 s⁻¹ |  |  |
| G29A U30G G35A A39U | < 1e-05 s⁻¹ | < 1e-05 s⁻¹ |  |
| A15G U30C C34G A36C G41U U49A C70A | < 1e-05 s⁻¹ | < 1e-05 s⁻¹ |  |
| C16U G21U G35U C70A | 7.72e-05 ± 2.8e-05 s⁻¹ |  |  |
| U30C U55A G60A C71A | < 1e-05 s⁻¹ |  |  |
| A15G G29A G63C | < 1e-05 s⁻¹ |  |  |
| A14G G44U U46A | 0.000181 ± 4.5e-05 s⁻¹ | 0.000253 ± 8.6e-05 s⁻¹ |  |
| A15U U31C G41U C70U | 3.6e-05 ± 1.4e-05 s⁻¹ |  | 6.84e-05 ± 1.3e-05 s⁻¹ |
| G29U G35A U45G | < 1e-05 s⁻¹ |  |  |
| C16A G38U C67G | 0.0005 ± 0.00011 s⁻¹ |  |  |
| A15C U47G G66U | < 1e-05 s⁻¹ |  |  |
| G29C G35C G38U G51U G59A | < 1e-05 s⁻¹ | < 1e-05 s⁻¹ |  |
| U30A A64U | < 1e-05 s⁻¹ |  |  |
